Assays:
[1] = test system: HeLa Kyoto; experiment: solubility in G1/S (NP-40 vs SDS abundance) (log2 ratio); higher = more soluble; conditions: cell cycle stage: G1/S
[2] = test system: HeLa Kyoto; experiment: melting temperature (median over replicates), in situ; higher = more thermally stable
[3] = test system: HeLa Kyoto; experiment: solubility change mitosis vs G1/S (difference of NP-40 vs SDS log2 ratios) (log2 ratio difference); higher = more soluble in mitosis
[4] = test system: HeLa Kyoto; experiment: thermal stability score vs G1/S (z-score of summed log2 fold changes over temperatures); higher = more thermally stable than in G1/S
[5] = cell cycle stage: early G1 (4.5 h after nocodazole release)
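For melting temperature (median over replicates), in situ in this document: HeLa Kyoto cells synchronized by double thymidine or nocodazole block, proteins quantified by TMT10plex mass spectrometry, three independent biological replicates.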
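For solubility change mitosis vs G1/S (difference of NP-40 vs SDS log2 ratios) in this document: synchronized HeLa Kyoto cells (double thymidine block for G1/S, nocodazole release for mitosis), protein amounts in NP-40 versus SDS lysates quantified by mass spectrometry, three biological replicates.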
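For solubility in G1/S (NP-40 vs SDS abundance) in this document: HeLa Kyoto cells arrested at G1/S by double thymidine block, proteins quantified by TMT10plex mass spectrometry in mild NP-40 versus SDS extracts, three biological replicates.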
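For thermal stability score vs G1/S (z-score of summed log2 fold changes over temperatures) in this document: synchronized HeLa Kyoto cells, proteins quantified by TMT10plex mass spectrometry, three biological replicates, mitosis taken 0.5 h after nocodazole release, G1/S directly after double thymidine block.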

Row | Sequence | solubility in G1/S (log2) [1] | melting temperature ([2]; cell cycle stage: G1/S) [°C] | melting temperature ([2]; cell cycle stage: mitosis) [°C] | solubility change mitosis (log2) [3] | thermal stability score [4, 5] | thermal stability score ([4]; cell cycle stage: mitosis)
1 | MGALRPTLLPPSLPLLLLLMLGMGCWAREVLVPEGPLYRVAGTAVSISCNVTGYEGPAQQNFEWFLYRPEAPDTALGIVSTKDTQFSYAVFKSRVVAGEVQVQRLQGDAVVLKIARLQAQDAGIYECHTPSTDTRYLGSYSGKVELRVLPDVLQVSAAPPGPRGRQAPTSPPRMTVHEGQELALGCLARTSTQKHTHLAVSFGRSVPEAPVGRSTLQEVVGIRSDLAVEAGAPYAERLAAGELRLGKEGTDRYRMVVGGAQAGDAGTYHCTAAEWIQDPDGSWAQIAEKRAVLAHVDVQTLSSQLAVTVGPGERRIGPGEPLELLCNVSGALPPAGRHAAYSVGWEMAPAGAPGPGRLVAQLDTEGVGSLGPGYEGRHIAMEKVASRTYRLRLEAARPGDAGTYRCLAKAYVRGSGTRLREAASARSRPLPVHVREEGVVLEAVAWLAGGTVYRGETASLLCNISVRGGPPGLRLAASWWVERPEDGELSSVPAQLVGGVGQDGVAELGVRPGGGPVSVELVGPRSHRLRLHSLGPEDEGVYHCAPSAWVQHADYSWYQAGSARSGPVTVYPYMHALDTLFVPLLVGTGVALVTGATVLGTITCCFMKRLRKR [IGSF8] | -0.0809 | 56.3 | 54.7 | -0.0392 | -2.98 | -1.56
2 | MGDAKEAGAEGPPAGAAARGGLSLLSQGESEESSAQGSALFLGGNEVKSRAVVKYSSAPPRTAFARLEEKTDLKLPPANWLRESAKLGPAGTTILGNSKKSKPFSSFGMAYDFIDSVGNDVDVVSDSENIKKLLKIPYSKSHVSMAVHRIGRTLLLDELDIQELFMRSSQTGDWTWLKEFYQRLIDQKWQRKKKSKEHWYQKAILSKFLYYSINGDGAAQPVSSTAEQQESSSSDQTNDSEGASWPAPFEMPSSVSEDPSASSQGSEPLEPSYIVGHVASAPKEQNLITLFNDGEHSQGLKNDFVRNILWTFEDIHMLVGSNMPIFGGGRYPAVSLRLRDNNKPINVLTGIDYWLDNLICNVPELVMCFHVNGIVQKYEMIKTEEIPNLENSNFSTKVIKDIAQNILSFLKSNCTKEGHTYWLFKASGSDIVKLYDLTTLCEETEDKYQNPFTMPVAILLYKVACNMMMKKNQNKKHYGTIRTLLLNCLKLLDKSRHPQIIASANYMLSELFQLDEPKKEENSESPLNENSDESYSEEEEEMPDSDENGSYSTSSDPSDDSKAVAIIKSVGELSVPEKYKSIHQIRPSCAFPVCHDTEERCRLVLSYVLEGLKSVDSSIKKESDLPAADPSTPIPLKYEDESSRGGPEGLEKQMALFLDKMGSLQKGNYSSQSGMIPGSWQHKMKLQLILKSSKAYYVLSDAAMSLQKYGRALRYIKLALQSHDTYCCLCTNMLSEVLLFLSQYLTLCGDIQLMLAQNANNRAAHLEEFHYQTKEDQEILHSLHRESSCQGFAWATDLSTDLESQLSVSCKCYEAANEILQFSDLKSQNPEHYVQVLKRMGNIRNEIGVFYMNQAAALQSERLVSKSVSAAEQQLWKKSFSCFEKGIHNFESIEDATNAALLLCNTGRLMRICAQAHCGAGDELKREFSPEEGLYYNKAIDYYLKALRSLGTRDIHPAVWDSVNWELSTTYFTMATLQQDYAPLSRKAQEQIEKEVSEAMMKSLKYCDVDSVSARQPLCQYRAATIHHRLASMYHSCLRNQVGDEHLRKQHRVLADLHYSKAAKLFQLLKDAPCELLRVQLERVAFAEFQMTSQNSNVGKLKTLSGALDIMVRTEHAFQLIQKELIEEFGQPKSGDAAAAADASPSLNREEVMKLLSIFESRLSFLLLQSIKLLSSTKKKTSNNIEDDTILKTNKHIYSQLLRATANKTATLLERINVIVHLLGQLAAGSAASSNAVQ [EDRF1] | -0.026 | 51 | 49.3 | -0.0878 | 0.416 | -0.168
3 | MGDHAWSFLKDFLAGGVAAAVSKTAVAPIERVKLLLQVQHASKQISAEKQYKGIIDCVVRIPKEQGFLSFWRGNLANVIRYFPTQALNFAFKDKYKQLFLGGVDRHKQFWRYFAGNLASGGAAGATSLCFVYPLDFARTRLAADVGKGAAQREFHGLGDCIIKIFKSDGLRGLYQGFNVSVQGIIIYRAAYFGVYDTAKGMLPDPKNVHIFVSWMIAQSVTAVAGLVSYPFDTVRRRMMMQSGRKGADIMYTGTVDCWRKIAKDEGAKAFFKGAWSNVLRGMGGAFVLVLYDEIKKYV [SLC25A4] | -0.352 | 58.1 | 56.4 | -0.117 | -2.08 | -1.11
4 | MGDTVVEPAPLKPTSEPTSGPPGNNGGSLLSVITEGVGELSVIDPEVAQKACQEVLEKVKLLHGGVAVSSRGTPLELVNGDGVDSEIRCLDDPPAQIREEEDEMGAAVASGTAKGARRRRQNNSAKQSWLLRLFESKLFDISMAISYLYNSKEPGVQAYIGNRLFCFRNEDVDFYLPQLLNMYIHMDEDVGDAIKPYIVHRCRQSINFSLQCALLLGAYSSDMHISTQRHSRGTKLRKLILSDELKPAHRKRELPSLSPAPDTGLSPSKRTHQRSKSDATASISLSSNLKRTASNPKVENEDEELSSSTESIDNSFSSPVRLAPEREFIKSLMAIGKRLATLPTKEQKTQRLISELSLLNHKLPARVWLPTAGFDHHVVRVPHTQAVVLNSKDKAPYLIYVEVLECENFDTTSVPARIPENRIRSTRSVENLPECGITHEQRAGSFSTVPNYDNDDEAWSVDDIGELQVELPEVHTNSCDNISQFSVDSITSQESKEPVFIAAGDIRRRLSEQLAHTPTAFKRDPEDPSAVALKEPWQEKVRRIREGSPYGHLPNWRLLSVIVKCGDDLRQELLAFQVLKQLQSIWEQERVPLWIKPYKILVISADSGMIEPVVNAVSIHQVKKQSQLSLLDYFLQEHGSYTTEAFLSAQRNFVQSCAGYCLVCYLLQVKDRHNGNILLDAEGHIIHIDFGFILSSSPRNLGFETSAFKLTTEFVDVMGGLDGDMFNYYKMLMLQGLIAARKHMDKVVQIVEIMQQGSQLPCFHGSSTIRNLKERFHMSMTEEQLQLLVEQMVDGSMRSITTKLYDGFQYLTNGIM [PI4KB] | 0.00648 | 52.3 | 52.2 | -0.221 | -0.522 | -0.618
5 | MGFLKLIEIENFKSYKGRQIIGPFQRFTAIIGPNGSGKSNLMDAISFVLGEKTSNLRVKTLRDLIHGAPVGKPAANRAFVSMVYSEEGAEDRTFARVIVGGSSEYKINNKVVQLHEYSEELEKLGILIKARNFLVFQGAVESIAMKNPKERTALFEEISRSGELAQEYDKRKKEMVKAEEDTQFNYHRKKNIAAERKEAKQEKEEADRYQRLKDEVVRAQVQLQLFKLYHNEVEIEKLNKELASKNKEIEKDKKRMDKVEDELKEKKKELGKMMREQQQIEKEIKEKDSELNQKRPQYIKAKENTSHKIKKLEAAKKSLQNAQKHYKKRKGDMDELEKEMLSVEKARQEFEERMEEESQSQGRDLTLEENQVKKYHRLKEEASKRAATLAQELEKFNRDQKADQDRLDLEERKKVETEAKIKQKLREIEENQKRIEKLEEYITTSKQSLEEQKKLEGELTEEVEMAKRRIDEINKELNQVMEQLGDARIDRQESSRQQRKAEIMESIKRLYPGSVYGRLIDLCQPTQKKYQIAVTKVLGKNMDAIIVDSEKTGRDCIQYIKEQRGEPETFLPLDYLEVKPTDEKLRELKGAKLVIDVIRYEPPHIKKALQYACGNALVCDNVEDARRIAFGGHQRHKTVALDGTLFQKSGVISGGASDLKAKARRWDEKAVDKLKEKKERLTEELKEQMKAKRKEAELRQVQSQAHGLQMRLKYSQSDLEQTKTRHLALNLQEKSKLESELANFGPRINDIKRIIQSREREMKDLKEKMNQVEDEVFEEFCREIGVRNIREFEEEKVKRQNEIAKKRLEFENQKTRLGIQLDFEKNQLKEDQDKVHMWEQTVKKDENEIEKLKKEEQRHMKIIDETMAQLQDLKNQHLAKKSEVNDKNHEMEEIRKKLGGANKEMTHLQKEVTAIETKLEQKRSDRHNLLQACKMQDIKLPLSKGTMDDISQEEGSSQGEDSVSGSQRISSIYAREALIEIDYGDLCEDLKDAQAEEEIKQEMNTLQQKLNEQQSVLQRIAAPNMKAMEKLESVRDKFQETSDEFEAARKRAKKAKQAFEQIKKERFDRFNACFESVATNIDEIYKALSRNSSAQAFLGPENPEEPYLDGINYNCVAPGKRFRPMDNLSGGEKTVAALALLFAIHSYKPAPFFVLDEIDAALDNTNIGKVANYIKEQSTCNFQAIVISLKEEFYTKAESLIGVYPEQGDCVISKVLTFDLTKYPDANPNPNEQ [SMC1A] | -0.302 | 51.9 | 51.3 | 0.0456 | -0.868 | -1.79
6 | MGGGWWWARAARLARLRFRRSLLPPQRPRSGGARGSFAPGHGPRAGASPPPVSELDRADAWLLRKAHETAFLSWFRNGLLASGIGVISFMQSDMGREAAYGFFLLGGLCVVWGSASYAVGLAALRGPMQLTLGGAAVGAGAVLAASLLWACAVGLYMGQLELDVELVPEDDGTASAEGPDEAGRPPPE [TMEM160] | -0.112 | 54.2 | 56.9 | -0.0483 | -1.62 | -1.47

Source: the supplement of paper PMC5998384
